According to patent publication US20230235013A1 (MABSOLVE, published 2023):
Numbering of substitutions follows the chain as printed. Names and notes keep the numbering of the source.

B1: anti-CD20 (rituximab) human IgG1 L234Q/G236R (antibody)
heavy: not shown
light: QIVLSQSPAILSASPGEKVTMTCRASSSVSYIHWFQQKPGSSPKPWIYATSNLASGVPVRFSGSGSGTSYSLTISRVEAEDAATYYCQQWTSNPPTFGGGTKLEIKRTVAAPSVFIFPPSDEQLKSGTASVVCLLNNFYPREAKVQWKVDNALQSGNSQESVTEQDSKDSTYSLSSTLTLSKADYEKHKVYACEVTHQGLSSPVTKSFNRGEC
notes: EU numbering; also called 2-30; copies: 2 + 2
B2: anti-CD20 (rituximab) human IgG1 L234S/L235G/G236R (antibody)
heavy: QVQLQQPGAELVKPGASVKMSCKASGYTFTSYNMHWVKQTPGRGLEWIGAIYPGNGDTSYNQKFKGKATLTADKSSSTAYMQLSSLTSEDSAVYYCARSTYYGGDWYFNVWGAGTTVTVSSASTKGPSVFPLAPSSKSTSGGTAALGCLVKDYFPEPVTVSWNSGALTSGVHTFPAVLQSSGLYSLSSVVTVPSSSLGTQTYICNVNHKPSNTKVDKKVEPKSCDKTHTCPPCPAPESGRGPSVFLFPPKPKDTLMISRTPEVTCVVVDVSHEDPEVKFNWYVDGVEVHNAKTKPREEQYNSTYRVVSVLTVLHQDWLNGKEYKCKVSNKALPAPIEKTISKAKGQPREPQVYTLPPSRDELTKNQVSLTCLVKGFYPSDIAVEWESNGQPENNYKTTPPVLDSDGSFFLYSKLTVDKSRWQQGNVFSCSVMHEALHNHYTQKSLSLSPGK
light: B1 light
notes: EU numbering; also called 2-47; 1-140; copies: 2 + 2
B3: anti-CD20 (rituximab) human IgG1 L234T/L235Q/G236R (antibody)
heavy: B2 heavy with S238T, G239Q
light: B1 light
notes: EU numbering; also called 2-60; copies: 2 + 2
B4: anti-CD20 (rituximab) human IgG1 L234T/L235S/G236R (antibody)
heavy: B2 heavy with S238T, G239S
light: B1 light
notes: EU numbering; also called 2-62; copies: 2 + 2
B5: anti-CD20 (rituximab) human IgG1 L234S/L235V/G236R (antibody)
heavy: B2 heavy with G239V
light: B1 light
notes: EU numbering; also called 2-53; copies: 2 + 2
B6: anti-CD20 (rituximab variable regions) human IgG4 L234Q/L235S/G236R (with S228P) (antibody)
heavy: QVQLQQPGAELVKPGASVKMSCKASGYTFTSYNMHWVKQTPGRGLEWIGAIYPGNGDTSYNQKFKGKATLTADKSSSTAYMQLSSLTSEDSAVYYCARSTYYGGDWYFNVWGAGTTVTVSSASTKGPSVFPLAPCSRSTSESTAALGCLVKDYFPEPVTVSWNSGALTSGVHTFPAVLQSSGLYSLSSVVTVPSSSLGTKTYTCNVDHKPSNTKVDKRVESKYGPPCPPCPAPEQSRGPSVFLFPPKPKDTLMISRTPEVTCVVVDVSQEDPEVQFNWYVDGVEVHNAKTKPREEQFNSTYRVVSVLTVLHQDWLNGKEYKCKVSNKGLPSSIEKTISKAKGQPREPQVYTLPPSQEEMTKNQVSLTCLVKGFYPSDIAVEWESNGQPENNYKTTPPVLDSDGSFFLYSRLTVDKSRWQEGNVFSCSVMHEALHNHYTQKSLSLSLGK
light: B1 light
notes: copies: 2 + 2
B7: anti-CD20 (rituximab) human IgG1 L234Q/L235S/G236R/M252Y/S254T/T256E (antibody)
heavy: B2 heavy with S238Q, G239S, M256Y, S258T, T260E
light: B1 light
notes: EU numbering; also called 10.145; copies: 2 + 2
B8: anti-CD20 (rituximab) human IgG1 L234Q/L235S/G236R/T250Q/M428L (antibody)
heavy: B2 heavy with S238Q, G239S, T254Q, M432L
light: B1 light
notes: EU numbering; also called 10.146; copies: 2 + 2
B9: anti-CD20 (rituximab variable regions) rabbit IgG L234Q/L235S/G236R (antibody)
heavy: QVQLQQPGAELVKPGASVKMSCKASGYTFTSYNMHWVKQTPGRGLEWIGAIYPGNGDTSYNQKFKGKATLTADKSSSTAYMQLSSLTSEDSAVYYCARSTYYGGDWYFNVWGAGTTVTVSSGQPKAPSVFPLAPCCGDTPSSTVTLGCLVKGYLPEPVTVTWNSGTLTNGVRTFPSVRQSSGLYSLSSVVSVTSSSQPVTCNVAHPATNTKVDKTVAPSTCSKPTCPPPEQSRGPSVFIFPPKPKDTLMISRTPEVTCVVVDVSEDDPEVQFTWYINNEQVRTARPPLREQQFNSTIRVVSTLPIAHEDWLRGKEFKCKVHNKALPAPIEKTISKARGQPLEPKVYTMGPPREELSSRSVSLTCMINGFYPSDISVEWEKNGKAEDNYKTTPAVLDSDGSYFLYSKLSVPTSEWQRGDVFTCSVMHEALHNHYTQKSISRSPGK
light: QIVLSQSPAILSASPGEKVTMTCRASSSVSYIHWFQQKPGSSPKPWIYATSNLASGVPVRFSGSGSGTSYSLTISRVEAEDAATYYCQQWTSNPPTFGGGTKLEIKRDPVAPSVLLFPPSKEELTTGTATIVCVANKFYPSDITVTWKVDGTTQQSGIENSKTPQSPEDNTYSLSSTLSLTSAQYNSHSVYTCEVVQGSASPIVQSFNRGDC
notes: also called 23.77
B10: anti-CD20 (rituximab variable regions) human IgG2 L234Q/L235S (antibody)
heavy: QVQLQQPGAELVKPGASVKMSCKASGYTFTSYNMHWVKQTPGRGLEWIGAIYPGNGDTSYNQKFKGKATLTADKSSSTAYMQLSSLTSEDSAVYYCARSTYYGGDWYFNVWGAGTTVTVSSASTKGPSVFPLAPCSRSTSESTAALGCLVKDYFPEPVTVSWNSGALTSGVHTFPAVLQSSGLYSLSSVVTVPSSNFGTQTYTCNVDHKPSNTKVDKTVERKCCVECPPCPAPPQSGPSVFLFPPKPKDTLMISRTPEVTCVVVDVSHEDPEVQFNWYVDGVEVHNAKTKPREEQFNSTFRVVSVLTVVHQDWLNGKEYKCKVSNKGLPAPIEKTISKTKGQPREPQVYTLPPSREEMTKNQVSLTCLVKGFYPSDIAVEWESNGQPENNYKTTPPMLDSDGSFFLYSKLTVDKSRWQQGNVFSCSVMHEALHNHYTQKSLSLSPGK
light: B1 light
notes: also called 11.144; copies: 2 + 2

The binders below were run against T1, human FcRn (R&D Systems Cat. No. 8639-Fc) (human, UniProt P55899 24-297; P61769 21-119) (assay: SPR, FcRn captured; Mean).

Corrected and normalised response (% of wild-type reference) | Binder
99.3 % of wild-type reference | B1
100 % of wild-type reference | B2
95 % of wild-type reference | B3

These binders were tested against T1, human FcRn (R&D Systems Cat. No. …) (assay: SPR, FcRn captured; Expt 1).

Corrected and normalised response (% of wild-type reference) | Binder
100 % of wild-type reference | B1
100 % of wild-type reference | B2
94.6 % of wild-type reference | B3

Each binder was assayed against T1, human FcRn (R&D Systems Cat. No. …) (assay: SPR, FcRn captured; Expt 2).

Corrected and normalised response (% of wild-type reference) | Binder
99 % of wild-type reference | B1
101 % of wild-type reference | B2
96.1 % of wild-type reference | B3

Each binder was assayed against T1, human FcRn (R&D Systems Cat. No. …) (assay: SPR, FcRn captured; Expt 3).

Corrected and normalised response (% of wild-type reference) | Binder
99 % of wild-type reference | B1
100 % of wild-type reference | B2
94.3 % of wild-type reference | B3

What follows are binders tested against T2, Human C1q (Sigma Cat. No. 20476), HRP-labelled (human, UniProt P02745 23-245; P02746 28-253; P02747 29-245) (assay: ELISA, antibody coated, HRP-C1q; Expt 1, buffer alone 0.061).
T2 construct: Coupled to horse-radish peroxidase with Lightning-Link kit; also called HRP-labelled C1q

Mean Absorbance | Binder
0.037 absorbance (450 nm) | B4
0.072 absorbance (450 nm) | B5
0.049 absorbance (450 nm) | B3

The binders below were run against T2, Human C1q (Sigma Cat. No. 20476), … (assay: ELISA, antibody coated, HRP-C1q; Expt 2, buffer alone 0.091).

Mean Absorbance | Binder
0.089 absorbance (450 nm) | B1
0.067 absorbance (450 nm) | B4
0.074 absorbance (450 nm) | B2
0.09 absorbance (450 nm) | B5
0.077 absorbance (450 nm) | B3

What follows are binders tested against T2, Human C1q (Sigma Cat. No. 20476), … (assay: ELISA, antibody coated, HRP-C1q; Expt 3, buffer alone 0.102).

Mean Absorbance | Binder
0.119 absorbance (450 nm) | B4
0.087 absorbance (450 nm) | B2

The binders below were run against T2, Human C1q (Sigma Cat. No. 20476), … (assay: ELISA, antibody coated, HRP-C1q; Expt 1, buffer alone 0.053).

Mean Absorbance | Binder
0.051 absorbance (450 nm) | B6
0.052 absorbance (450 nm) | B7
0.051 absorbance (450 nm) | B8
0.051 absorbance (450 nm) | B9

The binders below were run against T2, Human C1q (Sigma Cat. No. 20476), … (assay: ELISA, antibody coated, HRP-C1q; Expt 2, buffer alone 0.051).

Mean Absorbance | Binder
0.052 absorbance (450 nm) | B6
0.056 absorbance (450 nm) | B7
0.062 absorbance (450 nm) | B8
0.048 absorbance (450 nm) | B9

These binders were tested against T3, C-terminus biotinylated human FcRn attached to Streptavidin-SmBiT (FcRn-SAv-SmBiT) (human, UniProt P55899 24-297; P61769 21-119, limits assumed, C-terminus biotinylated (AviTag), attached to Streptavidin-SmBiT) (assay: NanoBiT FcRn competition immunoassay, competitor Tracer-LgBiT human IgG, pH 6.0).
T3 construct: Kit reagent; also called hFcRn-AviTag

Mean binding activity (% of wild-type reference) | Binder
143 % of wild-type reference | B10
114 % of wild-type reference | B6
3940 % of wild-type reference | B7
650 % of wild-type reference | B8
94.1 % of wild-type reference | B5
84.7 % of wild-type reference | B3
147 % of wild-type reference | B9
